Data taken from publication PMC11303751, “Novel enzymatic route to the synthesis of C-8 hydroxyflavonoids including flavonols and isoflavones” (Scientific Reports, 2024).

Assays:
fdeE = molecular target: T1, fdeE (Herbaspirillum seropedicae, UniProt D8J0W9); assay: UV-Vis spectrum of purified enzyme; type: binding; conditions: FAD co-purified with the enzyme; none added
T1 construct: gene Hsero_1007; codon-optimised ORF in pRhaBAD_12, expressed in E. coli BL21(DE3), purified by Ni IMAC (HisTrap), desalted
T1 sequence (D8J0W9 1-376): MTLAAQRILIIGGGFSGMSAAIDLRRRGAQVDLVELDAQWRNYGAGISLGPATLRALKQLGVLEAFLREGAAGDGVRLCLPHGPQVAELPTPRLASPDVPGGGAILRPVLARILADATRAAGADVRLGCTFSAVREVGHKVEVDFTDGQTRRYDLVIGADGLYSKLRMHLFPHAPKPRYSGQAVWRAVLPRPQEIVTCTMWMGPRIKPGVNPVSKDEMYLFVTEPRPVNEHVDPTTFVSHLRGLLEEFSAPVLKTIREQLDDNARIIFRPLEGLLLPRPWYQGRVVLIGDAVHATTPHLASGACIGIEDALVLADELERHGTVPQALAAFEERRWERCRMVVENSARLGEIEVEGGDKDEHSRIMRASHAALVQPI

[1] = substrate: O=c1cc(-c2ccccc2)oc2cc(O)cc(O)c12; assay: UPLC-DAD product-formation progress curve; type: biochemical, Herbaspirillum seropedicae; conditions: 1 mM NADPH, GDH/glucose regeneration, 25 mM DTT, 25 mM sodium phosphate pH 7.5, initial substrate 0.05 mM, from a single progress curve
Description: (§1) UPLC-DAD product-formation progress curve on fdeE

[2] = substrate: O=c1c(O)c(-c2ccc(O)c(O)c2)oc2cc(O)cc(O)c12; assay: UPLC-DAD product-formation progress curve; type: biochemical, Herbaspirillum seropedicae; conditions: 1 mM NADPH, GDH/glucose regeneration, 25 mM DTT, 25 mM sodium phosphate pH 7.5, initial substrate 0.05 mM, from a single progress curve
Description: as §1

[3] = substrate: O=c1cc(-c2ccc(O)c(O)c2)oc2cc(O)cc(O)c12; assay: UPLC-DAD product-formation progress curve; type: biochemical, Herbaspirillum seropedicae; conditions: 1 mM NADPH, GDH/glucose regeneration, 25 mM DTT, 25 mM sodium phosphate pH 7.5, initial substrate 0.05 mM, from a single progress curve
Description: as §1

[4] = substrate: O=C1C[C@@H](c2ccc(O)cc2)Oc2cc(O)cc(O)c21; assay: UPLC-DAD product-formation progress curve; type: biochemical, Herbaspirillum seropedicae; conditions: 1 mM NADPH, GDH/glucose regeneration, 25 mM DTT, 25 mM sodium phosphate pH 7.5, initial substrate 0.05 mM, from a single progress curve
Description: as §1

purified protein = substrate: O=c1cc(-c2ccc(O)cc2)oc2cc(O)cc(O)c12; assay: purified protein; conditions: 1 mM NADPH, GDH/glucose regeneration, 25 mM DTT, 25 mM sodium phosphate pH 7.5, initial substrate 0.05 mM, from a single progress curve

Molecule: Cc1cc2nc3c(=O)[nH]c(=O)nc-3n(C[C@H](O)[C@H](O)[C@H](O)COP(=O)(O)OP(=O)(O)OC[C@H]3O[C@@H](n4cnc5c(N)ncnc54)[C@H](O)[C@@H]3O)c2cc1C [FAD]
- UV-Vis spectrum of purified enzyme (fdeE): UV–Vis spectrium of purified fdeE with absorption spectra characteristic for FAD absorbance

B1: fdeE (Herbaspirillum seropedicae SmR1) (protein)
chain: MTLAAQRILIIGGGFSGMSAAIDLRRRGAQVDLVELDAQWRNYGAGISLGPATLRALKQLGVLEAFLREGAAGDGVRLCLPHGPQVAELPTPRLASPDVPGGGAILRPVLARILADATRAAGADVRLGCTFSAVREVGHKVEVDFTDGQTRRYDLVIGADGLYSKLRMHLFPHAPKPRYSGQAVWRAVLPRPQEIVTCTMWMGPRIKPGVNPVSKDEMYLFVTEPRPVNEHVDPTTFVSHLRGLLEEFSAPVLKTIREQLDDNARIIFRPLEGLLLPRPWYQGRVVLIGDAVHATTPHLASGACIGIEDALVLADELERHGTVPQALAAFEERRWERCRMVVENSARLGEIEVEGGDKDEHSRIMRASHAALVQPI
notes: codon-optimised ORF in pRhaBAD_12, expressed in E. coli BL21(DE3), purified by Ni IMAC (HisTrap), desalted
- Km [1]: 431 µM
- Vmax [1]: 88.2 µM/min
- kcat [1]: 1.17 s⁻¹
- kcat/Km [1]: 2720 M⁻¹ s⁻¹
- Km [2]: 14.9 µM
- Vmax [2]: 0.512 µM/min
- kcat [2]: 0.00678 s⁻¹
- kcat/Km [2]: 450 M⁻¹ s⁻¹
- Km [3]: 51.8 µM
- Vmax [3]: 6.12 µM/min
- kcat [3]: 0.0811 s⁻¹
- kcat/Km [3]: 1570 M⁻¹ s⁻¹
- Km [4]: 0.422 µM
- Vmax [4]: 2.09 µM/min
- kcat [4]: 0.0277 s⁻¹
- kcat/Km [4]: 65500 M⁻¹ s⁻¹
- Km (purified protein): 20.2 µM
- Vmax (purified protein): 4.02 µM/min
- kcat (purified protein): 0.0532 s⁻¹
- kcat/Km (purified protein): 2630 M⁻¹ s⁻¹
